The chains are these.
B6: recombinant human IL-20 (ligand, UniProt Q9NYY1 25-176, looked up)
chain: LKTLNLGSCVIATNLQEIRNGFSEIRGSVQAKDGNIDIRILRRTESLQDTKPANRCCLLRHLLRLYLDRVFKNYQTPDHYTLRKISSLANSFLTIKKDLRLCHAHMTCHCGEEAMKKYSQILSHFEKLEPQAAVVKALGELDILLQWMEETE
notes: also called rhIL-20; hIL-20
B7: recombinant mouse IL-20 (ligand, UniProt Q9JKV9 25-176, looked up)
chain: LKTLHLGSCVITANLQAIQKEFSEIRDSVQAEDTNIDIRILRTTESLKDIKSLDRCCFLRHLVRFYLDRVFKVYQTPDHHTLRKISSLANSFLIIKKDLSVCHSHMACHCGEEAMEKYNQILSHFIELELQAAVVKALGELGILLRWMEEML
notes: also called rmIL-20; murine IL-20

The target in assay [1] is T1, g1 IFNW (fusion protein of human IFNW with Gaussia luciferase) (human, UniProt P05000 22-195).
T1 construct: also called IFNW-Gaussia luciferase; human IFNW-Gaussia luciferase fusion protein; not shown: Gaussia luciferase
As to the kind of experiment: LCBA cross-competition, g1 IFNW preincubated with soluble antibody (FIG. 18).

Assay [2] concerns the target T2, g1 IL-20 (fusion protein of human IL-20 with Gaussia luciferase at the IL-20 N-terminus) (human, UniProt Q9NYY1 25-176).
T2 construct: also called IL-20-Gaussia luciferase fusion protein; GLuc-IL-20; not shown: Gaussia luciferase (pGaussia1 vector)
T2 sequence (looked up): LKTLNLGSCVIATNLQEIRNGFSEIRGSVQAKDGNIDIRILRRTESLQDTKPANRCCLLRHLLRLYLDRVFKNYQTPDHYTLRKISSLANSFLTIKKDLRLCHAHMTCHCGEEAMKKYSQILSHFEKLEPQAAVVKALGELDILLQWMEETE
As to the kind of experiment: chemiluminescent cell-binding assay (FIG. 8D): inhibition of g1 IL-20 binding to HEK 293T MSR cells expressing IL-20 receptor; receptor type for this value not stated.

Assay [3] addresses T3, peptide 19 of human IL-20, NYQTPDHYTLRKISSLAN (human).
T3 construct: spotted on a glass microarray through a hydrophilic linker
T3 peptide: NYQTPDHYTLRKISSLAN
As to the kind of experiment: 18mer peptide microarray of human IL-20.

Assay [4] deals with T4, corresponding 18mer peptide derived from mouse IL-20 (differs from the human IL-20 101-118-peptide at Y104H … (mouse)).
T4 construct: also called corresponding peptide derived from mouse IL-20
T4 peptide: PDHHTLRKISSLANSFLI
As to the kind of experiment: 18mer peptide microarray of murine IL-20.

Assay [5] deals with B6. As to the kind of experiment: cell-based or functional assay.
In assay [6] the target is B7. As to the kind of experiment: cell-based or functional assay.
Assay [7] concerns the target T5, peptide 20 of human IL-20, 101-PDHYTLRKISSLANSFLT-118 (human).
T5 construct: spotted on a glass microarray through a hydrophilic linker; also called human IL-20 101-118-peptide
T5 peptide: PDHYTLRKISSLANSFLT
As to the kind of experiment: 18mer peptide microarray of human IL-20, Cy5 anti-human IgG detection.

In assay [8] the target is T6, g2 IL-20 (fusion protein of human IL-20 fused C-terminally to Gaussia luciferase) (human, UniProt Q9NYY1 25-176).
T6 construct: order of the parts inferred from 'fused; C-terminally (g2 IL-20) to Gaussia luciferase'; the wording is ambiguous; also called GLuc-IL-20; not shown: Gaussia luciferase
T6 sequence (looked up): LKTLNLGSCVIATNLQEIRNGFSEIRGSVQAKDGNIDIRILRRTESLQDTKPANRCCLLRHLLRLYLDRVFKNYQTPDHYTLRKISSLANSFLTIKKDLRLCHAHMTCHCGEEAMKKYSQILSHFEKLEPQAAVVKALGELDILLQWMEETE
As to the kind of experiment: GLuc-sandwich ELISA, fusion protein captured by anti-GLuc antibody, serial dilution of MAB. On the technique in general: ELISA stands for enzyme-linked immunosorbent assay.

Assay [9] deals with T2, g1 IL-20 (fusion protein of human IL-20 …). The assay is described as above.
Assay [10] deals with B7. As to the kind of experiment: competition GLuc-sandwich ELISA: soluble mouse IL-20 titrated against antibody 1 µg/ml on captured g2 IL-20.
Assay [11] has as its target T7, Type I IL-20 receptor (IL-20RA/IL-20RB) on transfected HEK 293T MSR cells (human, UniProt Q9UHF4 30-553; Q6UXL0 30-311).
T7 construct: whole, on cells; also called IL-20 receptor Type I; IL20RA-Myc-DDK and IL20RB-Myc-DDK; not shown: Myc-DDK tag
T7 sequence (looked up) 1: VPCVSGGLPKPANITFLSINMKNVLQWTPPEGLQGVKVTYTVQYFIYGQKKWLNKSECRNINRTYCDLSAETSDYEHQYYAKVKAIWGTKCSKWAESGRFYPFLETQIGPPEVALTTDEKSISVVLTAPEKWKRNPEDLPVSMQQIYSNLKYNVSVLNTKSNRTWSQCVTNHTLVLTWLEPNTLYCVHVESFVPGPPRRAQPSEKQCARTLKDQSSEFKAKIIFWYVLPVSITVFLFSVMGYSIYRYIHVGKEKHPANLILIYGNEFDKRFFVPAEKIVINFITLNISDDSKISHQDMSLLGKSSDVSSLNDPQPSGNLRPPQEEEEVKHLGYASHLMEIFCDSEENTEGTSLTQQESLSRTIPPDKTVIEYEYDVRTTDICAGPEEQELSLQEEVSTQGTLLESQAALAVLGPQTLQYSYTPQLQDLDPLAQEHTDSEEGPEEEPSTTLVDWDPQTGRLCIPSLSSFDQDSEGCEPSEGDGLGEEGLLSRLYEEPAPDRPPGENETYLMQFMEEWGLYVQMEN
T7 sequence (looked up) 2: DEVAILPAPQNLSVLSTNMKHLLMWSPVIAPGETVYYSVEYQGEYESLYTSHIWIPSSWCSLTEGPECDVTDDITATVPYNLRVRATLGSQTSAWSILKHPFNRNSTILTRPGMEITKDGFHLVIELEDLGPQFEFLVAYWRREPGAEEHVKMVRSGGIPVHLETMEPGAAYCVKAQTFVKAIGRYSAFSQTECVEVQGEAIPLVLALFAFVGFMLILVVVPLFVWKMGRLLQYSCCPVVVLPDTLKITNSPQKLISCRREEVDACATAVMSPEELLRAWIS
As to the kind of experiment: LCBA, competition with g1 IL-20 on cells expressing Type I IL-20 receptor.

The target of assay [12] is T7, Type I IL-20 receptor (IL-20RA/IL-20RB) …. As to the kind of experiment: LCBA, competition with g1 IL-20 (FIG. 7E).
Assay [13] addresses T2, g1 IL-20 (fusion protein of human IL-20 …). As to the kind of experiment: GLuc-sandwich ELISA.

Where only a bound is given, the exact number is not on record here.

T1 sequence (P05000 22-195): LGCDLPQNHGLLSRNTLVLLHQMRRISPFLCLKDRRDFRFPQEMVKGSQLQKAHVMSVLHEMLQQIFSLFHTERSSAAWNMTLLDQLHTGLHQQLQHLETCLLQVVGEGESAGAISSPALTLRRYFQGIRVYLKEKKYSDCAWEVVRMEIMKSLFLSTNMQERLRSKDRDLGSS

B1: antibody 26B9 (soluble) (antibody, human IgG1, kappa, V domains shown)
VH: QILLQESGPGLVKPTETLSLTCSVSGDSISDSSHYWAWIRQPPGKGPEWIGSVYFSSMTHYNPSLKSRVSISVDKPKNQFSLKVTSVTVADTATYYCARQALARVGAMNWFDPWGQGSLVTVSS
VL: DIIMTQSPDSLPVSLGEGVTINCKSSQSVFFTSSNKSCLAWYQQKPGKSPKLLIYWASTRQSGVPDRFRGSGSGTDFSLTITSLQAEDVAVYFCQQCQTSPPTFGGGTRLEIKR
notes: IgG1, kappa; also called soluble 26B9
As for B1, the binding result in [1] is “binds”.

B2: antibody 31B4 (antibody, human IgG1, kappa, V domains shown)
VH: QIQLQESGPGLVRPTETLSLTCSVSGDSISQSSHYWAWIRQPPGKGPEWIGSVYFSSMTHYNPSLTSRVSISIDKAMNKFSLKVTSVTVADTATYYCARQALARVGAMNWFDPWGQGSLVTVSS
VL: DIIMTQSPESLPVSLGEGVTINCKSSQSVFFTSSNRSCLAWYQQKPGQSPKLLIYWASTRQSGVPDRFTGSGSGTDFSLTIAGLQVEDVAVYFCQQCHASPPTFGGGTRLELRR
notes: IgG1, kappa; clonally related to 26B9
For B2, in assay [1], the binding result was “binds”.

B3: antibody 20A10 (antibody, human IgG4, kappa, V domains shown)
VH: QVQLVQSGAEVKKPGSSVKVSCKTSGGTFSTSTLSWVRQAPGQGLEWLGGMIPILSRTTYAQKFQGRLTITADEPTSTSYMELSSLKSEDTAVYYCATEGEVSAAHNYYYGMDVWGQGTTVTVSS
VL: DIVLTQSPLYLPVTPGEPASISCRSSQSLLHGNGHNYLDWYLQKPGQSPQLLIYLGSNRASGVPDRFSGSGSGTDFTLKISRVEAEDVGVYYCMQTLHTVFTFGPGTRVDIKR
notes: Recombinant human-derived antibody; also called MAb 20A10; 20A0
B3: the 50% inhibitory concentration (IC50) (usually the midpoint of a concentration-inhibition curve) in assay [2] was 0.00403 µg/mL. Further, the binding result in assay [3] is reported as “no binding”; in assay [4], “no binding”; in [7], “binds”. In assay [5], the “IC 50 in the KZ136-NLuc reporter assay” value amounted to 0.33 µg/mL. Also, the “IC 50 in the pSTAT3 Western blot assay (25 ng/ml rmIL-20, Type I IL-20 receptor)” value in [6] was determined as 1870 ng/ml. Besides, the EC50 (in general, the midpoint of the concentration-response curve) in assay [8] was determined as 0.021 µg/mL; in assay [9], 0.0186 µg/mL.

B4: antibody 2A11 (antibody, IgG1, V domains shown)
VH: QVHLVQSGAEVKKPGSSVKVSCKASGGTFNNFPMSWVRQAPGRGLEWMAGIIPVFGSANYAQQFHGRVTISADISTSTVSMELNDLKSEDTGVYYCAISGDEDNWIMNFWGQGTLVTVSS
VL: QSLLTQPPSVSGAPGQRVTISCTGSSSNIGAGYDVHWYQQVPGTAPKLLIYGNRNRPSGVPDRFSGSKSGTSASLAITGLQAEDEADYYCQSYDSSLSGHAVFGGGTKVTVLR
notes: IgG1, lambda; also called MAb 2A11
For the molecule B4, the EC50 in [8] was 0.0065 µg/mL; in [9] it was 0.0098 µg/mL.

B5: antibody 6E11 (antibody, IgG1, V domains shown)
VH: QVQLVQSGAEVKKPGSSVKVSCKASGGTFRNYAINWVRQAPRQGLEWMGSLVPMFTSPTYAQKFRGRVTISADESTATSSMELTSLTSEDTAVYFCSADGYKGGLFYGMNVWGQGTTVTVSS
VL: DIVLTQSPESLAVSLGERATINCKSSQSVLYSSNSKNYLAWFQQKPGQPPKLLIYWASTRESGVPDRFSGSGSGTDFTLTITSLQAEDVAVYYCHQYHTLPRTFGHGTKVEIKR
notes: IgG1; also called MAb 6E11
As to B5, the binding result in [10] is “no binding (tested: 10 µg/ml to 4.6 ng/ml)”. Also, the EC50 came out at 0.347 µg/mL in assay [8] and 0.128 µg/mL in assay [9].
Consider B6, for which, in assay [11], the binding result is listed as “binds”.
As to B7, the binding result in assay [12] is “binds”.

B8: antibody 7D1 (antibody, human IgG1, lambda, V domains shown)
VH: EVQLVASGGDFIQPGRSLRLSCAASGFKFDDYAMFWVRQVPGRGLEWVSGISWSSDKMAYVDSVKGRFTISRDNAKNTLYLQMNNLRPDDTAFYYCAKGGFSSVWNYFDFWGQGTLVTVSS
VL: QSVLTQPPSASGTPGQTVIISCSGTTSNIGSNTVSWYRQLPGAAPKLLIFTYNQRPSGVPDRFSGSKSGTSASLAISGLQSDDEADYYCAVWDDALGGWVFGGGTKLTVLG
notes: IgG1, lambda; also called MAb 7D1
B8: the EC50 is more than 5 µg/mL in assay [13], 0.0271 µg/mL in assay [8] and 5.87 µg/mL in assay [9].

Source of the values: patent US20170189524A1 (IMMUNOQURE, published 2017).
